The source of these data is US20240374746A1, “SIRP-ALPHA ANTIBODIES AND CONJUGATES” (Tallac Therapeutics, Inc., priority 2021, published 2024).

The test system of data set [1] is RENCA renal carcinoma cells. The experiment in a line: RENCA syngeneic tumor model, mIgG2a versus mIgG1 Fc conjugates. The format is in vivo, mouse. The note with it: BALB/c mice, 10 mg/kg i.p., 3 doses every 3 days, compared to conjugate with the mIgG1 Fc domain. The source says:
Experiments using anti-SIRP-α antibody-CpG oligonucleotide conjugate used the mouse CpG oligo 4523 (SEQ ID NO: 121) conjugated to anti-SIRP-α antibody comprising a heavy chain comprising the sequence of […] (SEQ ID NO:90) for mIgG2a or […] (SEQ ID NO:91) for mIgG1 and a light chain comprising the sequence of […] (SEQ ID NO:111). The sequence of the 4523 murine CpG oligonucleotide is tucgtcgtgacgtt-c3, where lower case indicates phosphothioate linkages, bold indicates iodo-uridine, and underlining indicates phosphotriester linker (SEQ ID NO:121). RENCA renal carcinoma cells (ATCC) were cultured in Complete RPMI 1640 (RPMI 1640+10% FBS (Gibco)) at 37° C. and 5% CO2. Cells were detached with Trypsin 0.25% (Gibco) and washed twice with RPMI 1640 (Gibco). Cells were resuspended at 20E6/mL in RPMI 1640 and kept on ice until use. 100 uL of suspended cells were subcutaneously implanted into the right flank of 6-week-old female BALB/c mice (Charles River). Tumor size was measured and recorded twice a week with calipers starting 9 days post implantation until duration of the study, approximately 35 days later. Tumor volume was calculated using the following formula: (length×width×width)/2. Once tumors reached on average 75 mm^3, […], mice were randomized by tumor size and treatments were initiated. […]

The test system of data set [2] is MC38 overexpressing mouse SIRPα and parental MC38 colon carcinoma cells. The experiment in a line: Mouse syngeneic MC38 model with SIRP-α-positive and SIRP-α-negative tumor cells. Type of data set: in vivo. The conditions noted are these: 1 mg/kg i.p. twice, three days apart; MC38 overexpressing SIRP-α compared with parental MC38. The protocol: Parental MC38 colon carcinoma cells (ATCC) and MC38 overexpressing mouse SIRPα were cultured in Complete Dulbecco's Modified Eagle's Medium (Gibco) (DMEM, 10% FBS, 1% Pen/Strep, 1% Glutmax, 1% sodium pyruvate) at 37° C. and 5% CO2. Cells were detached with Trypsin 0.25% (Gibco) and washed twice with DMEM. Cells were resuspended at 20E6/mL in DMEM and kept on ice until use. 100 μL of suspended cells were subcutaneously implanted into the right flank of 6-week-old female C57/BL6 mice (Charles River). Tumor size was measured and recorded twice a week with calipers starting 4 days post implantation until duration of the study, approximately 17 days later. Tumor volume was calculated using the following formula: (length×width×width)/2. Once MC38 parental and MC38 SIRP-α tumors reached on average 94 mm^3 to 88 mm^3, respectively, approximately 4 days post implantation, mice were randomized by tumor size and treatments were initiated. The anti-SIRP-α mIgG1 conjugated to mTCpG (heavy chain comprising the sequence of SEQ ID NO:91 and light chain comprising the sequence of SEQ ID NO: 111, conjugated to mouse CpG oligo 4523 (SEQ ID NO: 121)) was administered intraperitoneally 2 doses every 3 days at 1 mg/kg.

The test system of data set [3] is B16-F10 melanoma cell line. The experiment in a line: B16F10 mouse syngeneic tumor model, combination with anti-PD-L1. The conditions noted are these: 30 mg/kg i.p. in combination with anti-PD-L1 antibody 10 mg/kg, compared to either alone. Type of data set: in vivo. The protocol:
B16-F10 melanoma cell line (ATCC) was cultured in Complete Dulbecco's Modified Eagle's Medium (DMEM, 10% FBS, 1% Pen/Strep, 1% Glutamax, 1% Sodium Pyruvate) at 37° C. and 5% CO2. Cells were detached with Trypsin 0.25% (Gibco) and washed twice with DMEM (Gibco). Cells were resuspended at 6E6/mL in DMEM and kept on ice until use. 100 μL of suspended cells were subcutaneously implanted into the right flank of 6-week-old female C57BL/6 mice (Charles River). Tumor size was measured and recorded 2-3 times a week with calipers starting 7 days post-implantation until duration of the study, approximately 17 days later. Tumor volume was calculated using the following formula: (length×width×width)/2. Once tumors reached on average 55 mm^3, approximately 7 days post-implantation, mice were randomized by tumor size and treatments were initiated. The conjugates were administered intraperitoneally 2 doses every 3 days at 30 mg/kg. Anti-PD-L1 was administered intraperitoneally 2 doses every 3 days at 10 mg/kg. […] The anti-mSIRP-α antibody conjugate comprised murine reactive mT-CpG oligonucleotide (SEQ ID NO: 121) conjugated to an anti-SIRP-α antibody comprising a heavy chain comprising the sequence of SEQ ID NO:91 and a light chain comprising the sequence of SEQ ID NO:111. […]

Data set [4] relates to RENCA renal carcinoma cells. The experiment in a line: RENCA mouse syngeneic tumor model refractory to PD-1. The format is in vivo. The note with it: 10 mg/kg i.p. three times, three days apart, single agent. The protocol: RENCA renal carcinoma cells line (ATCC) was cultured in Complete RPMI (RPMI, 10% FBS, 1× Pen/Strep, 1× Glutamax) at 37° C. and 5% CO2. Cells were detached with Trypsin 0.25% (Gibco) and washed twice with RPMI 1640 (Gibco). Cells were resuspended at 20E6/mL in RPMI 1640 and kept on ice until use. 100 μL of suspended cells were subcutaneously implanted into the right flank of 6-week-old female BALB/c mice (Charles River). Tumor size was measured and recorded twice a week with calipers starting 9 days post implantation until duration of the study, approximately 27 days later. Tumor volume was calculated using the following formula: (length×width×width)/2. Once tumors reached on average 56 mm^3, approximately 9 days post implantation, mice were randomized by tumor size and treatments were initiated. Anti-mSIRP-α conjugated to mT-CpG (heavy chain comprising the sequence of SEQ ID NO:91 and light chain comprising the sequence of SEQ ID NO:111, conjugated to mouse CpG oligo 4523 (SEQ ID NO:121)) was administered intraperitoneally 3 doses every 3 days at 10 mg/kg. In the anti-PD-1 RMP1-14 (BioXcell) treated cohort, dosing was initiated on day 10 post-tumor implantation once tumors reached on average 52 mm. A total of 3 doses 3 days apart at 10 mg/kg were administrated.

Data set [5] has as its system CT26 mouse colon carcinoma cells. The experiment in a line: CT26 mouse syngeneic tumor model, alone and in combination with anti-PD-1. Type of data set: in vivo. The protocol: CT26 mouse colon carcinoma cells (ATCC) were cultured in Complete RPMI (RPMI, 10% FBS, 1× Pen/Strep, 1× Glutamax) at 37° C. and 5% CO2. Once cells were 80% confluent, cells were detached with Trypsin 0.25% (Gibco) and washed twice with RPMI 1640 (Gibco). Cells were resuspended at 20E6/mL in RPMI 1640 and kept on ice until use. 100 μL of suspended cells were subcutaneously implanted into the right flank of 6 week old female BALB/c mice (Charles River). Tumor size was measured and recorded twice a week with calipers starting 7 days post implantation until duration of the study, approximately 27 days later. Tumor volume was estimated using the following formula: (length×width×width)/2. Once tumors reached 110 mm^3, approximately 9 days post implantation, mice were randomized by tumor size and treatments were initiated. Anti-mSIRP-α antibody-CpG oligonucleotide conjugate with a heavy chain comprising the sequence of SEQ ID NO:91 and a light chain comprising the sequence of SEQ ID NO: 111, conjugated to mouse CpG oligo 4523 (SEQ ID NO:121), […], 4 days apart, anti-PD-1 […] (BioXcell) at 10 mg/kg twice, 4 days apart as a single agent or in combination with anti-mSIRP-α antibody-CpG oligonucleotide conjugate for a total of two doses 4 days apart and anti-PD-1 twice, two days post anti-mSIRP-α antibody-CpG oligonucleotide conjugate.

B1: conjugate with the mIgG2a Fc: anti-SIRP-α antibody, heavy chain SEQ ID NO:90 and light chain SEQ ID NO:111, conjugated to mouse CpG oligo 4523 (SEQ ID NO:121) (conjugate)
heavy: DVQLVESGGGVVRPGESLRLSCAASGFTFSSNAMSWVRQAPGKGLEWLAGISAGGSDTYYPASVKGRFTISRDNSKNTLYLQMNTLTAEDTAVYYCARETWNHLFDYWGLGTLVTVSSAKTTAPSVYPLAPVCGDTTGSSVTLGCLVKGYFPEPVTLTWNSGSLSSGVHTFPAVLQSDLYTLSSSVTVTSSTWPSQSITCNVAHPASSTKVDKKIEPRGPTIKPCPPCKCPAPNLLGGPSVFIFPPKIKDVLMISLSPIVTCVVVDVSEDDPDVQISWFVNNVEVHTAQTQTHREDYNSTLRVVSALPIQHQDWMSGKEFKCKVNNKDLPAPIERTISKPKGSVRAPQVYVLPPPEEEMTKKQVTLTCMVTDFMPEDIYVEWTNNGKTELNYKNTEPVLDSDGSYFMYSKLRVEKKNWVERNSYSCSVVHEGLHNHHTTKSFSRTPGRPQGFGPP
light: ALTQPASVSANPGETVKIACSGGDYYSYYYGWYQQKAPGSALVTVIYSDDKRPSDIPSRFSGSASGSTATLTITGVRAEDEAVYYCGGYDYSTYANAFGAGTTLTVLGQPKSSPSVTLFPPSSEELETNKATLVCTITDFYPGVVTVDWKVDGTPVTQGMETTQPSKQSNNKYMASSYLTLTARAWERHSSYSCQVTHEGHTVEKSLSRADCS
DNA: ttcgtcgtgacgtt
modifications: antibody conjugated to CpG oligonucleotide; modified_base 2 OTHER; iodo-uridine; modified_base 1..5 OTHER; phosphorothioate linkages; misc_feature 5^6 phosphotriester linker; modified_base 6..14 OTHER; misc_feature 14 3' spacer C3
In the case of B1, the anti-tumor inhibition result in data set [1] is “reduced anti-tumor inhibition”.

B2: anti-mSIRP-α antibody conjugated with murine reactive mT-CpG: anti-SIRP-α mIgG1, heavy chain SEQ ID NO:91 and light chain SEQ ID NO:111, conjugated to mouse CpG oligo 4523 (SEQ ID NO:121) (conjugate)
heavy: DVQLVESGGGVVRPGESLRLSCAASGFTFSSNAMSWVRQAPGKGLEWLAGISAGGSDTYYPASVKGRFTISRDNSKNTLYLQMNTLTAEDTAVYYCARETWNHLFDYWGLGTLVTVSSAKTTPPSVYPLAPGSAAQTNSMVTLGCLVKGYFPEPVTVTWNSGSLSSGVHTFPAVLQSDLYTLSSSVTVPSSTWPSETVTCNVAHPASSTKVDKKIVPRDCGCKPCICTVPEVSSVFIFPPKPKDVLTITLTPKVTCVVVDISKDDPEVQFSWFVDDVEVHTAQTQPREEQFNSTFRSVSELPIMHQDWLNGKEFKCRVNSAAFPAPIEKTISKTKGRPKAPQVYTIPPPKEQMAKDKVSLTCMITDFFPEDITVEWQWNGQPAENYKNTQPIMDTDGSYFIYSKLNVQKSNWEAGNTFTCSVLHEGLHNHHTEKSLSHSPGRPQGFGPP
light: ALTQPASVSANPGETVKIACSGGDYYSYYYGWYQQKAPGSALVTVIYSDDKRPSDIPSRFSGSASGSTATLTITGVRAEDEAVYYCGGYDYSTYANAFGAGTTLTVLGQPKSSPSVTLFPPSSEELETNKATLVCTITDFYPGVVTVDWKVDGTPVTQGMETTQPSKQSNNKYMASSYLTLTARAWERHSSYSCQVTHEGHTVEKSLSRADCS
DNA: ttcgtcgtgacgtt
modifications: antibody conjugated to CpG oligonucleotide; modified_base 2 OTHER; iodo-uridine; modified_base 1..5 OTHER; phosphorothioate linkages; misc_feature 5^6 phosphotriester linker; modified_base 6..14 OTHER; misc_feature 14 3' spacer C3
B2: the anti-tumor activity entry in data set [2] is recorded as “superior anti-tumor activity”. In addition, the anti-tumor response result in data set [3] is “enhanced anti-tumor response”; in data set [4], “potent, single-agent anti-tumor response”; in data set [5] (suboptimal dose 0.3 mg/kg in combination with anti-PD-1 antibody 10 mg/kg, compared to either alone) it was “enhanced anti-tumor response”. For the same molecule, the tumor growth inhibition entry in data set [5] (1 mg/kg i.p., single agent) was “robust tumor growth inhibtion”.
